Paper PMC10110401, “HuR modulation counteracts lipopolysaccharide response in murine macrophages”

Target: HuR M1M2 (rM1M2_HuR) (UniProt Q15717 20-186)
Test: HTRF; 20 nM protein, 50 nM probe; hook point titration 0-500 nM protein; TM7nox inhibits with IC50 0.7956 uM (small-molecule value); REMSA: 3.7 nM (or 100 nM) protein, 1 nM probe, 30 min, 4% native PAGE, buffer not given; HTRF: 20 nM protein, 50 nM probe, buffer not given; pull-down: lysis in 20 mM Tris-HCl pH 7.5, 100 mM KCl, 5 mM MgCl2, 0.5% NP-40, probe 0.5 uM in TENT (20 mM Tris-HCl pH 8.0, 2 mM EDTA, 500 mM …)
Details: protein: recombinant; tags: His-tag; label: biotin; single strand

HuR M1M2 (rM1M2_HuR), sequence (Q15717 20-186): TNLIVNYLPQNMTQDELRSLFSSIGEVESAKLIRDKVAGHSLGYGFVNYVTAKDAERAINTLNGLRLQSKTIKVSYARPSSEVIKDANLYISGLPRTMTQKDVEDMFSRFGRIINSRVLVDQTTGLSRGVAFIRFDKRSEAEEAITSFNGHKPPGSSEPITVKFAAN

B1: Bi-TNF ARE probe (ssRNA)
RNA: AUUAUUUAUUAUUUAUUUAUUAUUUA
modifications: 5'-biotin
Q: Does B1 bind?
A: binds
